Data on three substances can be found in US20020064802.

In data set [1] the test system is GATA 15.5 ZFP (NLS-ZFP-VP16-FLAG) (synthetic construct (SP1 backbone)). The data set can be described thus: cell_activity. The note with it: 293 cells.
The test system of data set [2] is VEGF 3a/1 ZFP (NLS-ZFP-VP16-FLAG) (synthetic construct (SP1 backbone)). The data set can be described thus: cell_activity. The settings on record: 293 cells.
The test system of data set [3] is GATA 15.5 ZFP (NLS-ZFP-VP16-FLAG) (synthetic construct (SP1 backbone)). The note with it: ChIP anti-FLAG, 293 cells, GAPDH-normalized; 1.9 in Table 7; control ZFP.
For data set [4], the system named is VEGF 3a/1 ZFP (NLS-ZFP-VP16-FLAG) (synthetic construct (SP1 backbone)). The settings on record: ChIP anti-FLAG, 293 cells, GAPDH-normalized; 170.4 in Table 7.
The test system is the same in data set [5]. The note with it: ChIP anti-FLAG, 293 cells, GAPDH-normalized.
For data set [6], the system named is GATA 15.5 ZFP (NLS-ZFP-VP16-FLAG) (synthetic construct (SP1 backbone)). The note with it: ChIP anti-FLAG, 293 cells, GAPDH-normalized; designed for a different site.

Read-outs that look alike come from different tables or passages of the source.

Take GGGGAGGATCGCGGAGGCTT (double strand): the activity (fold luciferase vs NVF) stood at 0.8 in data set [1] (integrated reporter, 1 in Table 8) and 18 in data set [2] (integrated reporter, 10 in Table 8). For the same substance, the binding signal (fold enrichment vs NVF) is 0.88 in data set [3] and 74.1 in data set [4].
Turning to “GGGGAGGATCGCGGAGGCTT (double strand) [endogenous VEGF-A gene target at +1 accessible region]”, the binding signal (fold enrichment vs NVF) in data set [5] turned out to be 12.1. The substance also showed an activity (fold VEGF mRNA vs NVF) in data set [2] (VEGF protein 1.2, mRNA 1.0 and protein 1.5 in Table 9) of 1.6.
Turning to “endogenous VEGF-A gene (GATA 15.5 bound site not mapped)”, in data set [6], the binding signal (fold enrichment vs NVF) turned out to be 4.1. The substance further yielded an activity (fold VEGF mRNA vs NVF) in data set [1] (VEGF protein 1.2, mRNA 2.0 and protein 2.0 in Table 9) of 2.
